Experimental findings from paper PMC12105683, “Generation of Conformation‐Specific Monoclonal Antibodies for Integral Membrane Proteins” (Current Protocols, 2025) are described below.

Numbering of substitutions follows the chain as printed.

Details in all cases: both partners purified
Assay [1] concerns the target T1, GluN2A (Rattus norvegicus, UniProt P35439;G3V9C5).
T1 construct: also called GluN2A subunit; source: HEK293S GnTI- cells/tSA201 cells, baculovirus transduction (pEG BacMam)
Briefly: BLI; Octet RED384; mAb (25 µg/ml) captured on anti-mouse IgG Fc capture (AMC) biosensors, iGluR as analyte; TBS with 0.075% LMNG or 1 mM DDM; association 900 s, dissociation 1800 s; 1:1 model, global fit. In general terms: In BLI a coated tip is dipped into the sample, and binding shifts an interference pattern.

In assay [2] the target is T2, GluA3 AMPAR (Rattus norvegicus, UniProt P19492).
T2 construct: GluA3 subunit of the AMPA receptor; source: HEK293S GnTI- cells/tSA201 cells, baculovirus transduction (pEG BacMam)
The assay is described as above.

The target in assay [3] is T3, GFP-conjugated GluN1/GluN3A receptor (Rattus norvegicus, UniProt P35439;Q9R1M7).
T3 construct: GluN1 subunit of the NMDA receptor; GluN3A subunit of the NMDA receptor; also called GluN1/GluN3A NMDAR; GluN1/N3A NMDAR; source: HEK293S GnTI- cells/tSA201 cells, baculovirus transduction (pEG BacMam); copies: 2 + 2
Briefly: SEC; fluorescence-detection SEC (FSEC) shift assay; receptor incubated with mAbs individually and in combination at a 1:2 molar ratio; Superose 6 Increase 10/300 GL, 20 mM Tris, 150 mM NaCl, 0.075% LMNG. A general note: SEC sorts molecules by how far they enter the pores of the column.

The target in assay [4] is T4, GluN3A (Rattus norvegicus, UniProt P35439;Q9R1M7).
T4 construct: also called GluN3A subunit; source: HEK293S GnTI- cells/tSA201 cells, baculovirus transduction (pEG BacMam)
Briefly: BLI; Octet RED384; mAb (25 µg/ml) captured on anti-mouse IgG Fc capture (AMC) biosensors, iGluR as analyte; TBS with 0.075% LMNG or 1 mM DDM; association 900 s, dissociation 1800 s; 1:1 model, global fit.

Assay [5] deals with T5, TARP γ‐2 (printed accession Q71RJ2 is rat; table …, UniProt Q71RJ2).
T5 construct: TARP γ-2 (stargazin), AMPAR auxiliary subunit; also called transmembrane AMPAR regulatory protein γ-2; source: HEK293S GnTI- cells/tSA201 cells, baculovirus transduction (pEG BacMam)
Briefly: SEC; fluorescence-detection SEC (FSEC) shift assay; receptor incubated with mAbs individually and in combination at a 1:2 molar ratio; Superose 6 Increase 10/300 GL, 20 mM Tris, 150 mM NaCl, 0.075% LMNG.

Assay [6] deals with T6, TARP γ‐8 (Mus musculus, UniProt Q8VHW2).
T6 construct: TARP γ-8, AMPAR auxiliary subunit; also called transmembrane AMPAR regulatory protein γ-8; source: HEK293S GnTI- cells/tSA201 cells, baculovirus transduction (pEG BacMam)
Briefly: BLI; Octet RED384; mAb (25 µg/ml) captured on anti-mouse IgG Fc capture (AMC) biosensors, iGluR as analyte; TBS with 0.075% LMNG or 1 mM DDM; association 900 s, dissociation 1800 s; 1:1 model, global fit.

The target in assay [7] is T6, TARP γ‐8. Briefly: SEC; fluorescence-detection SEC (FSEC) shift assay; receptor incubated with mAbs individually and in combination at a 1:2 molar ratio; Superose 6 Increase 10/300 GL, 20 mM Tris, 150 mM NaCl, 0.075% LMNG.
In assay [8] the target is T5, TARP γ‐2. Briefly: BLI; Octet RED384; mAb (25 µg/ml) captured on anti-mouse IgG Fc capture (AMC) biosensors, iGluR as analyte; TBS with 0.075% LMNG or 1 mM DDM; association 900 s, dissociation 1800 s; 1:1 model, global fit.
Assay [9] addresses T7, GluA2 AMPAR (Rattus norvegicus, UniProt P19491).
T7 construct: GluA2 subunit of the AMPA receptor; source: HEK293S GnTI- cells/tSA201 cells, baculovirus transduction (pEG BacMam)
Described as above.

In assay [10] the target is T8, GluA1 AMPAR (Rattus norvegicus, UniProt P19490-2).
T8 construct: GluA1 subunit of the AMPA receptor; source: HEK293S GnTI- cells/tSA201 cells, baculovirus transduction (pEG BacMam)
Described as above.

Assay [11] concerns the target T9, GluN1/GluN2A NMDAR (Rattus norvegicus, UniProt P35439;G3V9C5).
T9 construct: GluN1 subunit of the NMDA receptor; GluN2A subunit of the NMDA receptor; also called GluN1/N2A receptor; GluN1/N2A; source: HEK293S GnTI- cells/tSA201 cells, baculovirus transduction (pEG BacMam); copies: 2 + 2
As to the kind of experiment: SEC; fluorescence-detection SEC (FSEC) shift assay; receptor incubated with mAbs individually and in combination at a 1:2 molar ratio; Superose 6 Increase 10/300 GL, 20 mM Tris, 150 mM NaCl, 0.075% LMNG.

Assay [12] addresses T10, GluN1 (Xenopus laevis, UniProt A0A1L8F5J9).
T10 construct: also called GluN1 subunit; source: HEK293S GnTI- cells/tSA201 cells, baculovirus transduction (pEG BacMam)
As to the kind of experiment: BLI; Octet RED384; mAb (25 µg/ml) captured on anti-mouse IgG Fc capture (AMC) biosensors, iGluR as analyte; TBS with 0.075% LMNG or 1 mM DDM; association 900 s, dissociation 1800 s; 1:1 model, global fit.

T5 sequence (Q71RJ2 whole entry, one chain of several): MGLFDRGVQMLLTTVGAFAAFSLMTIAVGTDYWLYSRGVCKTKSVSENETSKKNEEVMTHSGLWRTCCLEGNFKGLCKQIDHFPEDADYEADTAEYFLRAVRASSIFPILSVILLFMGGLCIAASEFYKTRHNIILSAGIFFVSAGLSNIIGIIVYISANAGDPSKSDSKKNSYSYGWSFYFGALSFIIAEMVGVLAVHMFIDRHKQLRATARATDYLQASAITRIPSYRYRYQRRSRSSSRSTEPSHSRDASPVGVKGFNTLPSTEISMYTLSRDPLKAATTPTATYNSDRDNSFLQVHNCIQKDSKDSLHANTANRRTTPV

B1: 3D2 mAb (antibody, V domains shown)
VH: QVQLQQSGAELMKPGASVKISCKATGYTFRSYWIEWLKQRPGHGLEWIGEILPGSGRTNYNEKFKGKATITADTSSNTAYMQLSSLTSEDSAVYYCTRSRGTMITREFTYWGQGALVTVSA
VL: DIVLTQSPASLAVSLGQRATISCRASESVEYYGTTLMQWYQQKPGQPPKLLIYAASNVDSGVPARFSGSGSGTDFSLNIHPVEEDDIAMYFCQQSRKVPSTFGGGTKLEIK
notes: IgG1/kappa; source: mouse hybridoma, bioreactor flask; purified (Protein A/G agarose)
Consider B1, for which, in [1], the koff (as a rule, the rate constant with which the complex falls apart) was under 1e-07 s⁻¹ and the kon (as a rule, a measure of how fast the partners come together) amounted to 1.85e+06 M⁻¹ s⁻¹.

B2: 5B2 mAb (antibody, V domains shown)
VH: EVQLQESGPSLVKPSQTLSLTCSVTGDSITSGYWNWIRKFPGNKLEYMGHISYRGSTYYNPSLKSRISITRDTSKNQYYLQLNSVTTEDTATYYCASRSYDEGFDSWGQGTTLTVSS
VL: NIVLTQSPASLAVSLGQRATISCRASESLDSYGNSFMHWYQQKPGQPPKLLIYLASNLESGVPARFSGSGSRTDFTLTIDPVEADDAATYYCQQNKEDLLTFGAGTKLELK
notes: as for B1
With B2, in assay [2], the Kd (commonly the constant that tells how readily two partners part at equilibrium) is under 0.001 nM, the koff was under 1e-07 s⁻¹ and the kon amounted to 758000 M⁻¹ s⁻¹.

B3: 3G9 mAb (antibody, V domains shown)
VH: KVQLQQSGAGLVKPGASVKLSCKASGYTFTDYIIHWIKQRSGQGLEWIGWFYPGSGSIKYNEKFKDKATLTADYSSSTVYMELSRLTSEDSAVYFCARHEHRGYYGDYPMDYWGQGTSVTVSS
VL: DIVMSQSPSSLAVSVGEKVTMSCKSSQSLLYSNNQKNYLAWYQQKPGQSPKLLIYWASTRESGVPDRFTGSGSGTDFTLTISSVKAEDLAVYYCQQYYSYPPYTFGGGTKLEIK
notes: IgG2a/kappa; source: purified (Protein A/G agarose)
On to B3, for which the binding result in assay [3] is listed as “binds”.

B4: 5E3 mAb (antibody, V domains shown)
VH: QVQLQQPGAELVRPGASVKLSCKASGYSFTSYWMNWVKQRPGQGLEWIGMIHPSDSESRLNQKFKDKATLTVDKSSSTAYMQLRSPTSEDSAVYYCARSAYYRSFDYWGQGTTLTVSS
VL: DVLMTQTPLSLPVSLGDQASISCRSSQNIVHSNGNTYLEWYLQKPGQSPKLLIHKVSNRFSGVPDRFSGSGSGTDFTLKISRVEAEDLGVYYCFQGSHVPYTFGGGTKLEIK
notes: IgG1/kappa; source: purified (Protein A/G agarose)
With B4, in [4], binding was put at a Kd of 1.4 nM, the koff turned out to be 1.99e-05 s⁻¹ and the kon worked out at 83700 M⁻¹ s⁻¹.

B5: 9B5 mAb (antibody, V domains shown)
VH: EVQLQQSGAELVRSGASVKLSCTTSGFNIKDYYMHWVKQRPEQGLEWIGWIDPENGDAEYAPKFQGKATMTADTSSNTAYLQLSSLTSEDTAVYYCNSGVAYWGQGTLVTVSA
VL: not shown
notes: IgG2a/kappa; source: mouse hybridoma, bioreactor flask; purified (Protein A/G agarose)
Turning to B5, the binding result in assay [5] was “binds”. Moreover, in assay [6], the dissociation constant (Kd) is 3.1 nM, the koff was 0.00103 s⁻¹ and the association rate constant (kon) came out at 45900 M⁻¹ s⁻¹.

B6: 2D3 mAb (antibody, V domains shown)
VH: EVQLVESGGGLVKPGGSLKLSCAASGFAFSTYDMSWVRQTPEKRLEWVAYISGGGGTTYYPGTVKGRFTISRDNAKNTLYLQMSSLKSEDTAMYYCARQGYGYSMDYWGQGTSVTVSS
VL: DVVMTQTPLSLPVSLGDQASISCRSSQSLVHSNGDTYLLWYLQKPGQSPKLLIYKVSNRFSGVPDRFSGSGSGTDFTLKISRVEAEDLGVYFCSQSTHVPRTFGGGTKLEIK
notes: IgG2b/kappa; source: purified (Protein A/G agarose)
For the molecule B6, the binding result in [3] is given as “binds”.

B7: 4B2 mAb (antibody, V domains shown)
VH: EVQLQQSGAELVRSGASVKLSCTGSGFNIKDYYMHWVKQRPEQGLEWIGWIDPENGDTEYAPKFQGKATMTADTSSNTAYLHLSSLSSEDTAVYYCKGDYRYDDGGNYWGQGTSVTVSS
VL: DIQMTQTTSSLSASLGDRVTISCRASQDISNYLNWFQQKPDGTVKLLIYYTSRLHSGVPSRFSGSGSGTDYSLTINNLEQEDIATYFCQQGDSLPWTFGGGTKLEIK
notes: as for B5
With B7, the binding result in assay [7] is on record as “binds”. In [8], this molecule displayed a Kd of 4.5 nM, a koff of 0.000119 s⁻¹ and a kon of 50300 M⁻¹ s⁻¹.

B8: 15F1 mAb (antibody, V domains shown)
VH: QAQLKESGPGLVAPSQSLSITCTVSGFSLTNYGVHWVRQPPGKGLEWLGVIWAGGSTNYNSALMSRVSISKDNSKSQVFLKMNSLQTDDTVMYYCAREDYDYDWHFDVWGAGTTVTVSS
VL: B7 VL with D1E, N34S, F36Y, T69I, I83F, D92N, S93T, W96L, G100A, I106L
notes: as for B1
Consider B8, for which, in [9], the Kd was under 0.001 nM, the koff was under 1e-07 s⁻¹ and the kon was 1.02e+06 M⁻¹ s⁻¹.

B9: 11B8 mAb (antibody, V domains shown)
VH: EVKLLESGGGLVQPGGSLKLSCAASGFDFSEYWMSWVRQAPGKGLEWIGEINPDSSSIDYTPSLKDKIIISRDNAKKTLYLQLSKVRSEDTALYYCARPRGNYVVMDYWGQGTSVTVSS
VL: NIVLTQSPASLAVSLGQRATISCRASESVDSYGSSFVHWYQQKPGQPPKLLIFLASKLESGVPARFSGSGSRTDFTLTIDPVEADDAATYYCQQTNEDPYTFGGGTKLEIK
notes: IgG2b/kappa; source: mouse hybridoma, bioreactor flask; purified (Protein A/G agarose)
On to B9, for which, in assay [10], the koff is under 1e-07 s⁻¹ and the kon was 123000 M⁻¹ s⁻¹.

B10: 5F11 mAb (antibody, V domains shown)
VH: QGQMQQSGAELVKPGASVKLSCKTSGFSFSTSYINWLKQKPGQSLEWIAWIYAGTDGTSYNQKFTDKAQLTVDTSSSTAYMQFSSLTTDDSAIYYCAREGIYYGNYAGFTYWGQGTLVTVSA
VL: DIVMTQSPSSLAVTAGEKVTMRCKSSQSLLWSVNQNNYLSWYQQKQGQPPKLLIYGASIRESWVPDRFTGSGSGTDFTLTISNVHAEDLAVYYCQHNHGSFLPYTFGGGTKLEIK
notes: as for B1
As for B10, the binding result in assay [11] is “binds”. Also, in [12], the Kd was determined as 0.43 nM, the koff was determined as 6.19e-05 s⁻¹ and the kon came to 142000 M⁻¹ s⁻¹.
